Measured values as given in the nanobody polyreactivity screen of Harvey et al. (2022).

assay: yeast display, Sf9 membrane polyspecificity reagent, FACS + sequencing; frameworks hold sequencing errors
Summary of the method: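 In a synthetic yeast display library (Saccharomyces cerevisiae BJ5465), nanobody expression was induced with galactose for 36–48 hours. FACS gates were set low and high (top ~1%) using anti-HA fluorescence for expression and streptavidin fluorescence for binding of the Sf9 membrane reagent. Each polyreactivity label is drawn from the gate of origin.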

Sequence | polyreactivity (PSR sort gate)
QVQLVESGGGLVQAGGSLRLSCAASGRIFGRNAMGWYRQAPGKERELVAAISSSGGTYYADSVKGRFTISRDNAKNTVYLQMNSLKPEDTAVYYCAADGPVTGWFYTAIGWVKYDYWGQGTQVTVSS | high polyreactivity
QVQLVESGGGLVQAGGSLRLSCAASGRIFGRTAMGWYRKAPGKERELVAAISWRGGNTYYADSVKGRFTISRDNAKNTVYLQMNSLKPEDTAVYYCNTVQYRNEMGYWGQGTQVTVSS | high polyreactivity
QVQLVESGGGLVQAGGSLRLSCAASGRIFGRYALGWYRQAPGKERELVAAISSSGGSTYFADSVKGRFTISRDNAKNTVYLQMNSLKPEDTAGYYCAADVSAKRYYWGQGTQVTVSS | high polyreactivity
QVQLVESGGGLVQAGGSLRLSCAASGRIFGRYAMGWYRPAPGKERELVAGISARGGSTYYADSVKGRFTISRDNAKNTVYLQMNSLKPEDTAVYYCAARPYSIVPYDYWGQGTQVTVSS | high polyreactivity
QVQLVESGGGLVQAGGSLRLSCAASGRIFGRYAMGWYRQAPGKERELVAAISSGSSTNYADSLKGRFTISRDNAKNTVYLQMNSLKPEDTAVYYCAVVLYRHWWYDYWGQGTQVTVSS | high polyreactivity
QVQLVESGGGLVQAGGSLRLSCAASGRIFGRYAMGWYRQAPGKERELVAAITSSGGNTYYADSVKGRFTISRDNAKNTVYLQMNSLKPEDTAVYYCNALSARSRLQSDYWGQGTQVTVSS | high polyreactivity
QVQLVESGGGLVQAGGSLRLSCAASGRIFGRYAMGWYRQAPGKERELVASITRRGGSTYYADSVKGRFTISRDNAKNTVYLQMNSLKPEDTAVYYCAAGGFSWEGDSWGQGTQVTVSS | high polyreactivity
QVQLVESGGGLVQAGGSLRLSCAASGRIFGRYAMGWYRQAPGKERELVAVISARGARTYYADSVKGRFTISRDNAKHTVYLQMNSLKPEDTAVYYCAVDQYATDDYWGQGTQVTVSS | high polyreactivity
QVQLVESGGGLVQAGGSLRLSCAASGRIFGRYVMGWYRQAPGKERELVAAITSRDDSTYYADSVKGRFTISRDNAKNTVYLQMNSLKPEDTAVYYCAATWGRGYDYWGQGTQVTVSS | high polyreactivity
QVQLVESGGGLVQAGGSLRLSCAASGRIFGSFAMGWYRQAPGKERELVAAITKRGGRTYYADSVKGRFTISRDNANNTVYLQMNSLKPEDTAVYYCRIASYDYWGQGTQVTVSA | high polyreactivity
QVQLVESGGGLVQAGGSLRLSCAASGRIFGSNPMGWYRQAPGKERELVAAISSGGSTSYADSVKGRFTISRDNAKKTVYLQMNSLKPEDTAVYYCAADRFAFYGRYRGPYYYWGQGTQVTVSS | high polyreactivity
QVQLVESGGGLVQAGGSLRLSCAASGRIFGSYAMGWYRQAPGKERELVAAITRSGGSTYYADSVKGRFTISRDNAKNTVYLQMNSLKPEDTAVYYCAARYGIRYAYFGRFDYWGQGTQVTVSS | high polyreactivity
QVQLVESGGGLVQAGGSLRLSCAASGRIFGSYAMGWYRQAPGKERELVAGIRSVGSTYYADSVKGRFTISRDNAKNTVYFQMNSLKPEDTAVYYCAAEYFNQNTRQGYDSWGQGSQVTVSS | low polyreactivity
QVQLVESGGGLVQAGGSLRLSCAASGRIFGSYAMGWYRQAPGKERELVASIRSGGRTKYADSVKGRFTISRDNAKNTVYLQMNSLKPEVTAVYYCAVPIEWDYGYWGQGTQVTVSS | low polyreactivity
QVQLVESGGGLVQAGGSLRLSCAASGRIFGSYAMGWYRQAPGKERELVASIRSRGGRTYYADSVKGRFTISRDNAKNTVYLQMNSLKPEDTAVYYCAADVGVYYYSFYYWGQGTQVTVSS | high polyreactivity
QVQLVESGGGLVQAGGSLRLSCAASGRIFGSYTMGWYRQAPGKERELVAAISFSGARTRYADSVKGRFTISRDNAKNTVYLQMNSLKPEDTAVYYCAARFTGGKYDYWGQGTQVTVSS | high polyreactivity
QVQLVESGGGLVQAGGSLRLSCAASGRIFGSYTMGWYRQAPGKERELVAGISRRGGSTYYADSVKGRFTISRDNAKNTVYLQMNSLKPEDTAVYYCAAEVYYFYFYIMDYWGQGTQVTVSS | high polyreactivity
QVQLVESGGGLVQAGGSLRLSCAASGRIFGTNAMGWYRPAPGKERELVARITISTASTYYADSVKGRFTISRDNAKNTVSLQMNSLKPEDTAVYYCGVRWYIRSRPKVYKYDYWGQGTQVTVSS | high polyreactivity
QVQLVESGGGLVQAGGSLRLSCAASGRIFGTNAMGWYRQAPGKERELVAAITWRGGSTYYADSVKGRFTISRDNAKNTVYLQMNSLKPVDTAVYYCAKDLVYWYQTIRAGISNYWGQGTQVTVSS | low polyreactivity
QVQLVESGGGLVQAGGSLRLSCAASGRIFGVNAMGWYRQAPGKERELVAAISRSGGSTYYADSVKGRFTISRDNAKNTVYLQMNSRKPEDTAVYYCATDHFYYRQKYWAYYYWGQGTQVTVSS | high polyreactivity
QVQLVESGGGLVQAGGSLRLSCAASGRIFGVNAMGWYRQAPWKERELVAAINYSGGRTSYADSVKGRFTISRDNAKNTVYLQMNSLKPEDTAVYYCNAGGRRRIFAHSSTGDYWGQGTQVTVSS | high polyreactivity
QVQLVESGGGLVQAGGSLRLSCAASGRIFGVNARGWYRQAPGKERELVATITRGGNTNYADSVKGRFTISRDNAKNTVYLQMNSLKPEDTAVYYCNADRYRTFSRLPYGEYEYWGQGTQVTVSS | low polyreactivity

Sequence | polyreactivity (PSR sort gate)
QVQLVESGGGLVQAGGSLRLSCAASGRIFGVYAKGWYRQAPGKERELVAAISEGGGSTNYADSVKGRFTISRDNAKNTVYLQMNSLKPEETSVYYCAATYLTGVRRYYSWGQGSQVTVSS | low polyreactivity
QVQLVESGGGLVQAGGSLRLSCAASGRIFGVYAMGCYRQAPGKDRELVAAISSTGGSTYYADSVKGRFTISRDNAKNTVYLQMNSMKPEDTAVYYCEYDYWGQGTQVTVSS | low polyreactivity
QVQLVESGGGLVQAGGSLRLSCAASGRIFGVYAMGWYRQAAWKERELVAAITRGASTYYADSVKGRFTISRDNAKNTVYLQMNSLKPEDPAVYYCAVSQYRGIYRKYDYWGQGTQVTVSS | high polyreactivity
QVQLVESGGGLVQAGGSLRLSCAASGRIFGVYAMGWYRQAPGKERELVADISWSADSTYYADSVKGRFTISRDNAKNTVYLQMNSLKPEDTAVYYCAADALFNVQNSRGYDYWGQGTQVTVSS | low polyreactivity
QVQLVESGGGLVQAGGSLRLSCAASGRIFGWNAMGWYRQAPGKERELVAVIDTGGSTNYADSVKGRFTISRDNAKNTVYLQMNSLKPEDTAVYYCAAVTGIRYFTSEYDYWGQGTQVTVSS | low polyreactivity
QVQLVESGGGLVQAGGSLRLSCAASGRIFGWYAMGWYRQAPGKERELVAAINRGGSTNYADSVKGRFTISRDNAKNTVYLQMNSLSPEDTGVYYCAVRGVHYTAVTNIIYGYGYWGQGTQVTVSS | high polyreactivity
QVQLVESGGGLVQAGGSLRLSCAASGRIFGYNAMGWYIQAPGKERELVAVITYSGGSTYYADSVKGRFTISRDNAKNTVYLQMNSLKPEDTAVYYCNARPIDRYSGSGKQWPDYNYWGQGTQVTVSS | low polyreactivity
QVQLVESGGGLVQAGGSLRLSCAASGRIFGYNAMGWYRLAPGKERELVAAIRSGGSTNYADSVKGRFTISRDNAKNTVYLQMNSLKPEDTAVYYCAADDRWWYTPRPRYNYWGQGTQVTVSS | high polyreactivity
QVQLVESGGGLVQAGGSLRLSCAASGRIFGYNAMGWYRQAPGKERELVAAIRRSGNTYADSVKGRFTISRDNAKNTVYLQMNSLKPEDTAVYYCAHRVSKRMYYWGQGTQVTVSS | high polyreactivity
QVQLVESGGGLVQAGGSLRLSCAASGRIFGYNAMGWYRQAPGKERELVATISSGGGTNYADSVKGRFTISRDNAKNTVYLQMNSLKPEDTAVYYCNARIVYYYKRYTRDYEYWGQGTQVTVSS | low polyreactivity
QVQLVESGGGLVQAGGSLRLSCAASGRIFGYNAMGWYRQAPGKVRELVAAITTSGGSTYYADSVTGRFTISRDTAKNTVYLQMNSLKPEDTAVYYCARDSLQVFYQYASDDYWGQGTQVTVSS | low polyreactivity
QVQLVESGGGLVQAGGSLRLSCAASGRIFGYNAMGWYRQAPGTERELVAAISSSGGGTYYADSVKGRFTISRDNAKNTVYLQMNSLKPEDTAVYYCAAYTRPGRYDYWGQGTQVTVSS | high polyreactivity
QVQLVESGGGLVQAGGSLRLSCAASGRIFGYYAMGWYRPAPGKERELVAGITSGGITNYADSVKGRFTISRDNAKNTVYLQMNSLKPEDTAVYYCAARSGYYYRVKFYYWGQGTQVSVSS | high polyreactivity
QVQLVESGGGLVQAGGSLRLSCAASGRIFGYYAMGWYRQAPGKERELVAAIRRSGGSTYADSVKGRFTISRDNAKNTVYLQMNSLKPEDTAVYYCAAGHYWFTKGYHTLYDMDYWGQGTQVTVSS | high polyreactivity
QVQLVESGGGLVQAGGSLRLSCAASGRIFGYYAMGWYRQAPGKERELVAAISWSGGSTFYADSVKGRFTISRDYAKNTVYLQMISLKPEDTAVYYCNKDHLVYPSEFYYWGQGTQVTVSS | low polyreactivity
QVQLVESGGGLVQAGGSLRLSCAASGRIFGYYAMGWYRQAPGKERELVAAITINGGRTYYADSVKGRFTISRDNAKNTVYLQMNSLKPEDTAVYYCTATSRYNRLGYWGQGTQVTVSS | high polyreactivity
QVQLVESGGGLVQAGGSLRLSCAASGRIFGYYAMGWYRQAPGKERELVAAITSGGRTNYADSVKGRFTISRDNAKNTVYLQMNSLKPEDTAVYYCAKEYPRYSSPYDYWGQGTQVTVSS | low polyreactivity
QVQLVESGGGLVQAGGSLRLSCAASGRIFGYYAMGWYRQAPGKERELVAAITSGGRTYYADSVKGRFTISRDNAKNTVYLHMNSLKPEDTAVYYCAAVRALRKVRDYYYWGQGTQVTVSS | high polyreactivity
QVQLVESGGGLVQAGGSLRLSCAASGRIFGYYAMGWYRQAPGKERELVAAITWGGGTTRYADSVKGRFTISRDNAKNTVYLQMNSLKPEDTAVYYCATALWVRYYGQGGYIRRYDYWGQGTQVTVSS | high polyreactivity
QVQLVESGGGLVQAGGSLRLSCAASGRIFGYYAMGWYRQAPGKERELVARITWSGGDTYYADSVKGRFTISRDNAKNTVYLQMNSLKPEDTAVYYCAADYLDSTYGYVYGWDDYWGQGTQVTVSS | low polyreactivity
QVQLVESGGGLVQAGGSLRLSCAASGRIFGYYAMGWYRQAPGKERELVDSISSNGTSTYYADSVKGRFTISRDNAKNTVYLQMNSLKPEDTAVYYCAASYWYDKAYDYWGHGTQVTVSS | low polyreactivity
